Reference: patent US4790988A, “Method and compositions for the treatment of thrombotic episodes” (University of Florida, priority 1987, dated 1988)

Test system: thrombus in the circumflex coronary artery
Assay: Electrically induced coronary thrombus model in dogs, restoration of blood flow
Assay type: in vivo
Details: infused into a peripheral vein for 30 minutes at 10 microgram/kg/min; mongrel dogs
Protocol: A thrombus was introduced into the circumflex coronary artery of mongrel dogs by electrical current. Blood flow in the artery was measured by a commercially available electromagnetic flow probe. After stable blood flow for five minutes without electrical current, homogeneous recombinant human tissue plasminogen activator (Genentech) was infused into a peripheral vein for 30 minutes at a dose of 10 microgram/kg/min. In another cohort of animals, pentapeptide 6A was infused intra-arterially proximal to the occlusion at a dose of 5 micromoles/min for 20 min.

B1: tissue plasminogen activator: homogeneous recombinant human tissue plasminogen activator (Genentech) (protein, UniProt P00750 36-562, looked up)
Tissue-type plasminogen …: SYQVICRDEKTQMIYQQHQSWLRPVLRSNRVEYCWCNSGRAQCHSVPVKSCSEPRCFNGGTCQQALYFSDFVCQCPEGFAGKCCEIDTRATCYEDQGISYRGTWSTAESGAECTNWNSSALAQKPYSGRRPDAIRLGLGNHNYCRNPDRDSKPWCYVFKAGKYSSEFCSTPACSEGNSDCYFGNGSAYRGTHSLTESGASCLPWNSMILIGKVYTAQNPSAQALGLGKHNYCRNPDGDAKPWCHVLKNRRLTWEYCDVPSCSTCGLRQYSQPQFRIKGGLFADIASHPWQAAIFAKHRRSPGERFLCGGILISSCWILSAAHCFQERFPPHHLTVILGRTYRVVPGEEEQKFEVEKYIVHKEFDDDTYDNDIALLQLKSDSSRCAQESSVVRTVCLPPADLQLPDWTECELSGYGKHEALSPFYSERLKEAHVRLYPSSRCTSQHLLNRTVTDNMLCAGDTRSGGPQANLHDACQGDSGGPLVCLNDGRMTLVGIISWGLGCGQKDVPGVYTKVTNYLDWIRDNMRP
  animals with coronary blood flow restored: 5 of 7
  duration reflow persisted: 20.0 ± 10.9 min
  peak restored coronary blood flow (mean±SD): 22 ± 12 mL/min
  time to flow restoration: 12.3 ± 9.1 min
